Measured values published in paper PMC3020078.
Where “and” joins values, the source holds several entries; their conditions need not be identical. Identical values can stand only once.

What was measured:
[1] = biological target: cpMVPvsvg vaults (MVP with an N-terminal cysteine rich peptide and a C-terminal VSVG tag); test: co-IP
[2] = biological target: cpMVP vaults (MVP with an N-terminal cysteine rich peptide); test: SAXS

| percent of the protein mass as full vaults [2] | Substance | stoichiometry N (HisT7MVP:cpMVPvsvg) [1] |
| --- | --- | --- |
| – | HisT7MVP vaults (MVP with N-terminal T7 tag) (from UniProt Q62667 1-861) (natural protein) | 0.8 |
| 46% and 49% | cpMVP vaults (MVP with an N-terminal cysteine rich peptide) (natural protein) | – |
